Experimental data: patent US20060272039

Key:
[1] = molecular target: His-DAF-16 (C-terminal fragment), O16850
[2] = molecular target: His-DAF-16 (N-terminal fragment), O16850
Chain of His-DAF-16 (N-terminal fragment), O16850 (O16850 whole entry, looked up, the tested form may be a part): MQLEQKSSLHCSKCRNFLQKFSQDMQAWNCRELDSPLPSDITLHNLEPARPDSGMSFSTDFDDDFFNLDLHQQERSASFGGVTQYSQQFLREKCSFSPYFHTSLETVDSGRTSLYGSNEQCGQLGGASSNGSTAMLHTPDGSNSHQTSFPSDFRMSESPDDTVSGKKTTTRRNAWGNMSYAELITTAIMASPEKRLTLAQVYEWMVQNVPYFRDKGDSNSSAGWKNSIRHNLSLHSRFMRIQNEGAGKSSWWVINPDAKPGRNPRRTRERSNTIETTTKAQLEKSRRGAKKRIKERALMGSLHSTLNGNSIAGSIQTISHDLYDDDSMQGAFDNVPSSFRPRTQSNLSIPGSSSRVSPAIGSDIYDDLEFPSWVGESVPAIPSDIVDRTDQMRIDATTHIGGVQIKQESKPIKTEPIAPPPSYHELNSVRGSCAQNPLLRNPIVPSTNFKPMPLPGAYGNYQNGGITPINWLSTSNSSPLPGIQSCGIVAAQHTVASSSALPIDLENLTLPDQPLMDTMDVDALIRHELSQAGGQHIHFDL

Chain of His-DAF-16 (C-terminal fragment), O16850 (O16850 whole entry, looked up, the tested form may be a part): as above
Chain of GST-c-Jun (1-79) (P05412 1-79): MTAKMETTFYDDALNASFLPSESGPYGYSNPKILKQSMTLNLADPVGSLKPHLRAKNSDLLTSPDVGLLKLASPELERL

Protein	in vitro kinase assay (phosphorylation, [γ-32P]ATP, autoradiography) (GST-c-Jun (1-79))	in vitro kinase assay (phosphorylation, [γ-32P]ATP, autoradiography) [1]	in vitro kinase assay (phosphorylation, [γ-32P]ATP, autoradiography) [2]
Xpress-tagged JNK-1 (protein) MEERLSTTSSYPSHPGRSVEEDHNTLLASSSISSIIRGTRGHLNNFIESVGNWLVPSSSGRDDDAVSLDSCQSVYSPVRHHINSGTGGGILMEPSSIHVPENYYSVTIGEAQMVVLKRYQNLRLIGSGAQGIVCSAFDTVRNEQVAIKKLSRPFQNVTHAKRAYRELKLMSLVNHKNIIGILNCFTPQKKLDEFNDLYIVMELMDANLCQVIQMDLDHERLSYLLYQMLCGIRHLHSAGIIHRDLKPSNIVVRSDCTLKILDFGLARTAIEAFMMTPYVVTRYYRAPEVILGMGYKENVDVWSIGCIFGELIRGRVLFPGGDHIDQWTRIIEQLGTPDRSFLERLQPTVRNYVENRPRYQATPFEVLFSDNMFPMTADSSRLTGAQARDLLSRMLVIDPERRISVDDALRHPYVNVWFDEIEVYAPPPLPYDHNMDVEQNVDSWREHIFRELTDYARTHDIYS	JNK-1 phosphorylates DAF-16 as well as the mammalian c-Jun protein used as a positive control	The phosphorylation was only observed with the N-terminal (83-307) fragment of DAF-16, but not with the C-terminal (255-470) fragment (data not shown)	Upon activation of JNK-1 by UV, JNK-1 phosphorylates DAF-16
kinase-dead JNK-1 (APF) (protein) MEERLSTTSSYPSHPGRSVEEDHNTLLASSSISSIIRGTRGHLNNFIESVGNWLVPSSSGRDDDAVSLDSCQSVYSPVRHHINSGTGGGILMEPSSIHVPENYYSVTIGEAQMVVLKRYQNLRLIGSGAQGIVCSAFDTVRNEQVAIKKLSRPFQNVTHAKRAYRELKLMSLVNHKNIIGILNCFTPQKKLDEFNDLYIVMELMDANLCQVIQMDLDHERLSYLLYQMLCGIRHLHSAGIIHRDLKPSNIVVRSDCTLKILDFGLARTAIEAFMMAPFVVTRYYRAPEVILGMGYKENVDVWSIGCIFGELIRGRVLFPGGDHIDQWTRIIEQLGTPDRSFLERLQPTVRNYVENRPRYQATPFEVLFSDNMFPMTADSSRLTGAQARDLLSRMLVIDPERRISVDDALRHPYVNVWFDEIEVYAPPPLPYDHNMDVEQNVDSWREHIFRELTDYARTHDIYS			The kinase-dead JNK-1 (APF) failed to phosphorylate DAF-16
